Results from publication PMC10607449, “Structural Characterization of an N-Acetyl Sugar Amidotransferase Involved in the Lipopolysaccharide Biosynthesis in Bacteria” (International Journal of Molecular Sciences, 2023).

Biological target: the molecule itself
Assay: SEC

B1: N-acetyl sugar amidotransferase from Legionella pneumophila (enzyme)
chain: MSNARIGIDMSKIYAPKSIDLSSFQLPDEKLQTKYGLPHKVEFCKSCVISNQRPNSAVEYEHKKESKKHTIHFDDEGICDACRVAERKKSTINWEERDRQLRELCDRFRSKDGSYDCVVPGSGGKDSFYAAHILKYKYGMNPLTVTWAPHMYTPWGWRNFQSWIHAGFDNHLFTPNGRVHRLLTRLAVENLFHPFQPFMIGQKAYAPKMALLHKIKLVVYGENEAEYGNPIGDTESAKRDWKYFTADDKSKIFLGGTSVQELKSDFGLNDNDLDAYLPADPQQIEEQQVEVHYLGYYLKWHPQSCYYYSVEHGGFEASPERTPGTYSKYNSIDDKIDDFHYYTTLTKFGIGRATYDASQEIRSGDITREEGVALVKRFDQEFPERFAEEIFKYLSINLKEFPIASQMFEQPIMDRAYFMALADTFRSPHLWKKDGEQWKLRHQVTNLEKTKAEYLDLETV
notes: also called LpNASAT; NASAT
For B1, which “stoichiometry N” value is on record?
The value was 2.
